Assay [1] relates to MYCN expression. Description: Immunoblot of MYCN expression in SK-N-BE cells treated with EGF. In kind it is cell-based. Here is the method:
A neuroblastoma cell line SK-N-BE was cultured for 10 hours in media containing EGF at a variety of concentrations, by using an anti-phosphorylated EGFR antibody, an anti-EGFR antibody, an anti-MYCN antibody and an anti-actin antibody, the phosphorylation of an EGF receptor and the expression of MYCN were analyzed by an immunoblot method. FIG. 19 is a photograph showing a result of immunoblot. […] FIG. 20 is a photograph in which SK-N-BE cells were cultured in a medium containing 10 ng/ml EGF for different periods of time and the expression of MYCN was analyzed by an immunoblot method using an anti-MYCN antibody and an anti-actin antibody. […] From the above-mentioned results, it is thought that the following positive feed-back mechanism is present. That is to say, by EGF treatment, an EGFR signal is activated and the expression of MYCN is promoted. Next, by MYCN, transcription of NLRR1 is promoted. Next, the expression of NLRR1 is increased and activated. Next, by NLRR1, an EGFR signal is activated. Next, the expression of MYCN is further promoted.
Background: In western blotting, separated proteins are transferred to a membrane and probed.

Assay [2] deals with SK-N-BE cells, NLF cells, SH-SY5Y cells, SMS-SAN cells. Description: MTT assay, EGF-induced proliferation of neuroblastoma-derived cells. In kind it is cell-based. The following applies: SK-N-BE, NLF, SH-SY5Y, SMS-SAN cells, 10 ng/ml EGF. Here is the method: SK-N-BE cells, NLF cells, SH-SY5Y cells, SMS-SAN cells, which are cell lines derived from neuroblastoma, and SK-N-BE cells into which siRNA against NLRR1 was introduced were cultured in the presence and absence of 10 ng/ml EGF, and the cell proliferation was quantified by the MTT assay over time. FIG. 28 is a graph showing the cell proliferation, showing the change fold ratio of the proliferation of cells in the presence of EGF to the proliferation of cells in the absence of EGF.
For orientation: Tetrazolium dyes change colour on reduction, which living cells bring about.

B1: epidermal growth factor (protein, UniProt P01133 23-1207, looked up)
Pro-epidermal growth factor: PQHWSCPEGTLAGNGNSTCVGPAPFLIFSHGNSIFRIDTEGTNYEQLVVDAGVSVIMDFHYNEKRIYWVDLERQLLQRVFLNGSRQERVCNIEKNVSGMAINWINEEVIWSNQQEGIITVTDMKGNNSHILLSALKYPANVAVDPVERFIFWSSEVAGSLYRADLDGVGVKALLETSEKITAVSLDVLDKRLFWIQYNREGSNSLICSCDYDGGSVHISKHPTQHNLFAMSLFGDRIFYSTWKMKTIWIANKHTGKDMVRINLHSSFVPLGELKVVHPLAQPKAEDDTWEPEQKLCKLRKGNCSSTVCGQDLQSHLCMCAEGYALSRDRKYCEDVNECAFWNHGCTLGCKNTPGSYYCTCPVGFVLLPDGKRCHQLVSCPRNVSECSHDCVLTSEGPLCFCPEGSVLERDGKTCSGCSSPDNGGCSQLCVPLSPVSWECDCFPGYDLQLDEKSCAASGPQPFLLFANSQDIRHMHFDGTDYGTLLSQQMGMVYALDHDPVENKIYFAHTALKWIERANMDGSQRERLIEEGVDVPEGLAVDWIGRRFYWTDRGKSLIGRSDLNGKRSKIITKENISQPRGIAVHPMAKRLFWTDTGINPRIESSSLQGLGRLVIASSDLIWPSGITIDFLTDKLYWCDAKQSVIEMANLDGSKRRRLTQNDVGHPFAVAVFEDYVWFSDWAMPSVMRVNKRTGKDRVRLQGSMLKPSSLVVVHPLAKPGADPCLYQNGGCEHICKKRLGTAWCSCREGFMKASDGKTCLALDGHQLLAGGEVDLKNQVTPLDILSKTRVSEDNITESQHMLVAEIMVSDQDDCAPVGCSMYARCISEGEDATCQCLKGFAGDGKLCSDIDECEMGVPVCPPASSKCINTEGGYVCRCSEGYQGDGIHCLDIDECQLGEHSCGENASCTNTEGGYTCMCAGRLSEPGLICPDSTPPPHLREDDHHYSVRNSDSECPLSHDGYCLHDGVCMYIEALDKYACNCVVGYIGERCQYRDLKWWELRHAGHGQQQKVIVVAVCVVVLVMLLLLSLWGAHYYRTQKLLSKNPKNPYEESSRDVRSRRPADTEDGMSSCPQPWFVVIKEHQDLKNGGQPVAGEDGQAADGSMQPTSWRQEPQLCGMGTEQGCWIPVSSDKGSCPQVMERSFHMPSYGTQTLEGGVEKPHSLLSANPLWQQRALDPPHQMELTQ
modifications: Pro-epidermal growth factor
notes: epidermal growth factor, purchased from Sigma
Consider B1, for which the “expression of MYCN (immunoblot), time course” value in assay [1] (10 ng/ml EGF, different periods of time) is listed as “Increased expression of MYCN by EGF over time”. The “expression of MYCN (immunoblot), EGF concentration dependence” value in assay [1] (10 hours, EGF at a variety of concentrations) was “the expression of MYCN is increased depending upon the concentration of EGF”. The “proliferation of cells (MTT assay, fold ratio with vs without EGF)” value in assay [2] was “the proliferation of cells derived from neuroblastoma is promoted”.

These data come from US20110124006A1, “METHOD FOR SCREENING OF THERAPEUTIC AGENT FOR CANCER” (Hismitsu Pharmaceutical Co., Inc., priority 2008, published 2011).
